Assays:
[1] = biological target: full-length human Notch3 expressed on the cell surface (human) (UniProt Q9UM47); test: flow cytometry, negative control antibody, U2OS/hNotch3 cells
[2] = biological target: full-length human Notch3 expressed on the cell surface (human) (UniProt Q9UM47); test: flow cytometry, negative control antibody, OVCAR3 cells
[3] = biological target: full-length human Notch3 expressed on the cell surface (human) (UniProt Q9UM47); test: flow cytometry, negative control antibody, MDA-MB-468 cells
[4] = biological target: full-length human Notch3 expressed on the cell surface (human) (UniProt Q9UM47); test: flow cytometry, negative control antibody, MDA-MB-468/hNotch3 cells
[5] = biological target: full-length human Notch3 expressed on the cell surface (human) (UniProt Q9UM47); test: flow cytometry, negative control antibody, HCC2429 cells

Sequence of full-length human Notch3 expressed on the cell surface (human) (Q9UM47 40-2321): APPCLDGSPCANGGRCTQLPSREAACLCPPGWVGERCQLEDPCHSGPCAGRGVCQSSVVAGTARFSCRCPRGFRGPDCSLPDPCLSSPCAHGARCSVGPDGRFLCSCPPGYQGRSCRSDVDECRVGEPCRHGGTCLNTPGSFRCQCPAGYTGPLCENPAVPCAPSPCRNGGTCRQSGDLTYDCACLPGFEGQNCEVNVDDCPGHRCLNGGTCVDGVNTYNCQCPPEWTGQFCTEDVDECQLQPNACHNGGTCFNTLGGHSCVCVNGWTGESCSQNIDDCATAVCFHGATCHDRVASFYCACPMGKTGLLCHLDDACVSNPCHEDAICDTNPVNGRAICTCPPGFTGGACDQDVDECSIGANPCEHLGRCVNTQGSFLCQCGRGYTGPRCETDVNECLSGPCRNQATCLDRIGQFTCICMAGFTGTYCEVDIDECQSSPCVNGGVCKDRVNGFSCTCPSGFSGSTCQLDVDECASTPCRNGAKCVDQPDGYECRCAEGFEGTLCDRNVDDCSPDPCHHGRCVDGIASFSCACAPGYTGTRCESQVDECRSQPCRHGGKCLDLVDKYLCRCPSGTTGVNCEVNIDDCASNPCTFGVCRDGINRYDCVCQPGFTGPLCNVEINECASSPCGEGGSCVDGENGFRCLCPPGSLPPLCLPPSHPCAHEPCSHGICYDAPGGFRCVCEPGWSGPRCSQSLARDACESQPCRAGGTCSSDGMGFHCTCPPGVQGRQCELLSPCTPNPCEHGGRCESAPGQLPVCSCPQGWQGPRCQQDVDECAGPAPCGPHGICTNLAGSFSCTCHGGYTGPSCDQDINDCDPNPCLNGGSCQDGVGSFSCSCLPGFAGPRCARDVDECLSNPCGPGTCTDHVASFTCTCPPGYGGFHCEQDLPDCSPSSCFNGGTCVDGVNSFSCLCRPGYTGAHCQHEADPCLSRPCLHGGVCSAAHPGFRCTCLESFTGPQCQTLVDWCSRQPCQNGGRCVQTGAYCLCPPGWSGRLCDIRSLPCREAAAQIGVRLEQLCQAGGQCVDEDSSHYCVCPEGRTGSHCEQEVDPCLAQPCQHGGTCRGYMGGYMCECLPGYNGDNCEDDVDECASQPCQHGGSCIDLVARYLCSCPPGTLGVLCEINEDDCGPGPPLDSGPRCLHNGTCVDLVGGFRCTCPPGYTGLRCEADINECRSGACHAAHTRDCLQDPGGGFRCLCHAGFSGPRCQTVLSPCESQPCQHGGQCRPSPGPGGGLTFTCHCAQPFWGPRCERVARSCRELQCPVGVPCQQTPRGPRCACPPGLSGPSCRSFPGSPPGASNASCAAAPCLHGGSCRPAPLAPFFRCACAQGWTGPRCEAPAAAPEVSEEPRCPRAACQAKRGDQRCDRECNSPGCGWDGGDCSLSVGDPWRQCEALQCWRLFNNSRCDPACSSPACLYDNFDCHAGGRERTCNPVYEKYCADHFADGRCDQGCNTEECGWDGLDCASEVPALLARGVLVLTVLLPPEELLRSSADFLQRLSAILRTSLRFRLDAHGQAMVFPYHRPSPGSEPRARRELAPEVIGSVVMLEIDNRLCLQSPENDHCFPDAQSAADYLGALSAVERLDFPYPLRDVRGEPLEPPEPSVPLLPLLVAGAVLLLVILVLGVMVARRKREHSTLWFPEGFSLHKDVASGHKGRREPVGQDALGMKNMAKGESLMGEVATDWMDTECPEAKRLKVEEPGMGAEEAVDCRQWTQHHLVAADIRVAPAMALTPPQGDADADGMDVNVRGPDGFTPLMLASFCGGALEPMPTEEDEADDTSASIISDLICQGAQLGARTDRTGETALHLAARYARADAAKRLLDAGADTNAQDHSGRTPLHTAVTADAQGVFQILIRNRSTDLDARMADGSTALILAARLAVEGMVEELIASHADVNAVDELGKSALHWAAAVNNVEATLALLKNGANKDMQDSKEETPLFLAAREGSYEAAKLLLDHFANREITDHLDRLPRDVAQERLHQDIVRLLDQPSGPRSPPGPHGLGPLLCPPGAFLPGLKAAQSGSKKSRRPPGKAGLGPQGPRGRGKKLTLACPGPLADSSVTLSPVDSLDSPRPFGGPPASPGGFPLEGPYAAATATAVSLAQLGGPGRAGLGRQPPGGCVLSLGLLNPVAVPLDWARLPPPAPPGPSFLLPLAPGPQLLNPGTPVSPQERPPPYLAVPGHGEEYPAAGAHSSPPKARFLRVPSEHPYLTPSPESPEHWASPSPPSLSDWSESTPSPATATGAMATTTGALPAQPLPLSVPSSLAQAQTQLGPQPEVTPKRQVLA

MFI [1]: 6 MFI
MFI [2]: 5 MFI
MFI [3]: 6 MFI
MFI [4]: 6 MFI
MFI [5]: 3 MFI
Substance: huNeg8.8 negative control antibody
